Reference: publication PMC8413711, “Structure-based analyses of neutralization antibodies interacting with naturally occurring SARS-CoV-2 RBD variants” (Cell Research, 2021)

Target: T1, RBD-501Y.V2 (SARS-CoV-2, B.1.351 (501Y.V2) lineage …, K417N | E484K | N501Y)
T1 construct: also called K417N/E484K/N501Y ternary mutation; B.1.351 lineage RBD
Assay: SPR
Details: both partners purified

B1: BD-503 (antibody, V domains shown)
VH: EVQLVESGGGLIQPGGSLRLSCAASGLIVSSNYMSWVRQAPGKGLEWVSVLYAGGSTDYAGSVKGRFTISRDNSKNTLYLQMNSLRAEDTAVYYCARDAAVYGIDVWGQGTTVTVSS
VL: not shown
notes: also called BD-503 NAb
- fold reduction of binding affinity against RBD: > 3 fold

B2: BD-604 (antibody, V domains shown)
VH: EVQLVESGGGLIQPGGSLRLSCAASGIIVSSNYMTWVRQAPGKGLEWVSVIYSGGSTFYADSVKGRFTISRDNSKNTLYLQMSSLRAEDTAVYYCARDLGPYGMDVWGQGTTVTVSS
VL: DIQLTQSPSFLSASVGDRVTITCRASQGISSDLAWYQQKPGKAPNLLIYAASTLQSGVPSRFSGSGSGTEFTLTISSLQPEDFATYYCQQLNSDLYTFGQGTKLEIK
- fold reduction of binding affinity against RBD: 60 fold

B3: BD-515 (antibody, V domains shown)
VH: EVQLVESGGGLVQPGGSLRLSCAASEFIVSRNYMSWVRQAPGKGLEWVSVIYSGGSTFYADSVKGRFTISRDNSKNTLYLQMNSLRAEDTGVYYCARDRGLVSDYWGQGTLVTVSS
VL: DIQMTQSPSSLSASVGDRVTITCQASQDINKYLNWYQQKPGKAPKLLIFDASHLETGVPSRFSASGSGTDFTFTISSLQPEDIATYYCHQYDNLPRTFGQGTRLEIK
- fold reduction of binding affinity against RBD: > 3 fold

B4: BD-623 (antibody, V domains shown)
VH: EVQLVESGGGLVQPGGSLRLSCAASGFTVSSNYMSWVRQAPGKGLEWVSIIYSGGSTYYADSVKGRFTISRDNSKNTLYLQMNSLRAEDTAVYYCARDYAGRVWGQGTLVTVSS
VL: QSALTQPASVSGSPGQSITISCTGTSSDVGSYNLVSWYQQRPGKAPKLILYEVTKRPSGVSNRFSGSKSGNTASLAISGLQAEDEADYYCCSYAGSSTWVFGGGTKLTVL
- fold reduction of binding affinity against RBD: > 3 fold
